In US20220259289A1 (Janssen / Centocor, published 2022):

B1: ISOP193AR9P1B10 (designed binder, not shown: small tags and cut ends)
chain: LPAPKNLVVSRVTEDSARLSWAFQWHIFDSFLIQYQESEKVGEAIVLTVPGSERSYDLTGLKPGTEYTVSIYGVGRHYTVYDSNPLSAIFTT
B2: ISOP193AR9P1G11 (designed binder, not shown: small tags and cut ends)
chain: LPAPKNLVVSRVTEDSARLSWTNEQITKYGFDSFLIQYQESEKVGEAIVLTVPGSERSYDLTGLKPGTEYTVSIYGVGRHYTVYDSNPLSAIFTT
B3: ISOP193AR9P1F9 (designed binder, not shown: small tags and cut ends)
chain: LPAPKNLVVSRVTEDSARLSWPLFASDLNIFDSFLIQYQESEKVGEAIVLTVPGSERSYDLTGLKPGTEYTVSIYGVGRHYTVYDSNPLSAIFTT
B4: ISOP193AR9P1B4 (designed binder, not shown: small tags and cut ends)
chain: LPAPKNLVVSRVTEDSARLSWRDLQYHTFDSFLIQYQESEKVGEAIVLTVPGSERSYDLTGLKPGTEYTVSIYGVGRHYTVYDSNPLSAIFTT
B5: ISOP193BR9P1B10 (designed binder, not shown: small tags and cut ends)
chain: LPAPKNLVVSRVTEDSARLSWAWNRHDFDSFLIQYQESEKVGEAIVLTVPGSERSYDLTGLKPGTEYTVSIYGVHWTVLRPFIDSNPLSAIFTT
B6: ISOP193ER9P1G11 (designed binder, not shown: small tags and cut ends)
chain: LPAPKNLVVSRVTEDSARLSWTAPDAAFDSFDIYYFEHPVGGEAIVLTVPGSERSYDLTGLKPGTEYLVTIYGVKGGYLSMPLSAIFTT
B7: ISOP193ER9P1A8 (designed binder, not shown: small tags and cut ends)
chain: LPAPKNLVVSRVTEDSARLSWTAPDAAFDSLDIYYFEHPVGGEAIVLTVPGSERSYDLTGLKPGTEYLVTIYGVKGGYLSMPLSAIFTT
B8: ISOP193ER9P1C8 (designed binder, not shown: small tags and cut ends)
chain: LPAPKNLVVSRVTEDSARLSWTAPDAAFDSFDIYYFEHPVGGEAIVLTVPGSERSYDLTGLKPGTEYLVTIYGVKGGTYSLPLSAIFTT
B9: ISOP193ER9P1E8 (designed binder, not shown: small tags and cut ends)
chain: LPAPKNLVVSRVTEDSARLSWTAPDAAFDSFDIYYFEHPVGGEAIVLTVPGSERSYDLTGLKPGTEYLVTIYGVKGGELSKPLSAIFTT
B10: ISOP193ER9P1F7 (designed binder, not shown: small tags and cut ends)
chain: LPAPKNLVVSRVTEDSAHLSWTAPDAAFDSFDIYYFEHPVGGEAIVLTVPGSERSYDLTGLKPGTEYLVTIYGVKGGYLSMPLSAIFTT
B11: ISOP193ER9P1H11 (designed binder, not shown: small tags and cut ends)
chain: LPAPKNLVVSRVTEDSARLSWTAPDAAFDSFDIYYFEHPVGGEAIVLTVPGSERSYDLTGLKPGTEYLVAIYGVKGGVFSHPLSAIFTT
B12: ISOP193FR9P1G4 (designed binder, not shown: small tags and cut ends)
chain: LPAPKNLVVSRVTEDSARLSWTAPDAAFDSFEIYYFENELGGEAIVLTVPGSERSYDLTGLKPGTEYLVTIYGVKGGDWSDPLSAIFTT
B13: ISOP193FR9P1H9 (designed binder, not shown: small tags and cut ends)
chain: LPAPKNLVVSRVTEDSARLSWTAPDAAFDSFEIYYDELRNPGEAIVLTVPGSERSYDLTGLKPGTEYAVTIYGVKGGRYSPPLSAIFTT
B14: ISOP193HR9P1C8 (designed binder, not shown: small tags and cut ends)
chain: LPAPKNLVVSRVTEDSARLSWTAPDAAFDSFEIYYFELRLGGEAIVLTVPGSERSYDLTGLKPGTEYLVTIYGVKGGGYSTPLSAIFTT
B15: ISOP193ER9P1A11 (designed binder, not shown: small tags and cut ends)
chain: LPAPKNLVVSRVTEDSARLSWTAPDAAFDSFAIQYQEYVAHGEAIVLTVPGSERSYDLTGLKPGTEYHVRISGVKGGGVSWPLSAIFTT
B16: ISOP193ER9P1B5 (designed binder, not shown: small tags and cut ends)
chain: LPAPKNLVVSRVTEDSARLSWTAPDAAFDSFAIQYQEYVAHGEAIVLTVPGSERSYDLTGLKPGTEYHVRISGVKGGGVSWPLSAIVTT
B17: ISOP193ER9P1E4 (designed binder, not shown: small tags and cut ends)
chain: LPAPKNLVVSRVTEDSARLSWTAPDAAFDSFAIIYQEYVKSGEAIVLTVPGSERSYDLTGLKPGTEYHVRIGGVKGGLLSLPLSAIFTT
B18: ISOP120BR5P1E8 (designed binder, not shown: small tags and cut ends)
chain: LPAPKNLVVSRVTEDSARLSWNGGEYWVPRFDSFLIQYQESEKVGEAIVLTVPGSERSYDLTGLKPGTEYTVSIYGVVWLQWISWTDSNPLSAIFTT
notes: FN3 domain (Centyrin); tested as E. coli lysate
B19: ISOP120BR5P1B9 (designed binder, not shown: small tags and cut ends)
chain: LPAPKNLVVSRVTEDSARLSWAVEFNPTKFDSFLIQYQESEKVGEAIVLTVPGSERSYDLTGLKPGTEYTVSIYGVWWFEQWYPVSNPLSAIFTT
notes: as for B18
B20: ISOP120BR5P1C9 (designed binder, not shown: small tags and cut ends)
chain: LPAPKNLVVSRVTEDSARLSWAWNRHDFDSFLIQYQESEKVGEAIVLTVPGSERSYDLTGLKPGTEYTVSIYGVHWTVLRPFIDSNPLSAIFTT
notes: as for B18
B21: ISOP120BR5P1D9 (designed binder, not shown: small tags and cut ends)
chain: LPAPKNLVVSRVTEDSARLSWTINSHIFDSFLIQYQESEKVGEAIVLTVPGSERSYDLTGLKPGTEYTVSIYGVWGTKYWQAQSNPLSAIFTT
notes: as for B18
B22: ISOP120BR5P1A10 (designed binder, not shown: small tags and cut ends)
chain: LPAPKNLVVSRVTEDSARLSWTEEDITHLRFDSFLIQYQESEKVGEAIVLTVPGSERSYDLTGLKPGTEYTVSIYGVYWTWWVRWNSNPLSAIFTT
notes: as for B18
B23: ISOP120BR5P1G11 (designed binder, not shown: small tags and cut ends)
chain: LPAPKNLVVSRVTEDSARLSWTKRHFYTFDSFLIQYQESEKVGEAIVLTVPGSERSYYLTGLKPGTENTVSIYGVHGNHPYTDAPANPLSAIFTT
notes: as for B18
B24: ISOP120GR5P1E1 (designed binder, not shown: small tags and cut ends)
chain: LPAPKNLVVSRVTEDSARLSWTAPDAAFDSFIIQYAEDSSWGEAINLHVPGSERSYDLTGLKPGTEYHVHIYGVKGGEASNPLWAWFTT
notes: as for B18
B25: ISOP120GR5P1G3 (designed binder, not shown: small tags and cut ends)
chain: LPAPKNLVVSRVTEDSARLSWTAPDAAFDSFYIRYWEFCHSGEAIELSVPGSERSYDLTGLKPGTEYFVRIVGVKGGRVSLPLGAKFTT
notes: as for B18

Legend:
[1] = molecular target: T1, recombinant biotinylated CD137 protein (Fc-fusion protein, R&D Systems 838-4B) (human, UniProt Q07011 24-186, biotinylated, sites not stated); assay: ELISA, lysate on biotinylated CD137-Fc
T1 construct: Bought Fc fusion; also called CD137-Fc
Procedure: (§1) Streptavidin-coated Maxisorp plates (Nunc catalog 436110) were blocked for 1 h in Starting Block T20 (Pierce) and then coated with biotinylated CD137 (using same antigen as in panning) or negative controls (an unrelated Fc-fused recombinant protein and human serum albumin) for 1 h. Plates were rinsed with TBST and diluted lysate was applied to plates for 1 h. Following additional rinses, wells were treated with HRP-conjugated anti-Centyrin antibody (PAB25) for 1 h and then assayed with POD (Roche catalog 11582950001).

[2] = molecular target: extracellular domain of human CD137 on the surface of CHO-K1 cells (human, UniProt Q07011 24-186); assay: flow cytometry on CHO-K1 cells with human CD137 ECD
Procedure: Cell surface binding was analyzed via flow cytometry. Cenyrins were prepared at a maximal concentration of 500 nM in the presence of 125 nM anti His-mIgG1 antibody and then serially diluted in PBS/1% FCS buffer. Samples were then applied to approx 100 000 CHO-Kl cells expressing the extracellular domain of human CD137 on their surface. Unbound Centyrin/Antibody complexes were washed away and bound FN3 domains were detected by the addition of goat anti mouse-FITC labeled antibody. Samples were then aquired by flow cytometry. Subsequently, Mean flurescence intensity was plotted against the log Centyrin concentration and EC50 values were calculated by nonlinear regression using GraphPad Prism.

[3] = molecular target: unrelated Fc-fused recombinant protein; assay: ELISA, negative control Fc protein
[4] = molecular target: T2, human serum albumin (human, UniProt P02768 25-609); assay: ELISA, negative control HSA
T2 construct: Negative control of the ELISA; also called HSA
Procedure: as §1
T2 sequence (P02768 25-609 limits assumed): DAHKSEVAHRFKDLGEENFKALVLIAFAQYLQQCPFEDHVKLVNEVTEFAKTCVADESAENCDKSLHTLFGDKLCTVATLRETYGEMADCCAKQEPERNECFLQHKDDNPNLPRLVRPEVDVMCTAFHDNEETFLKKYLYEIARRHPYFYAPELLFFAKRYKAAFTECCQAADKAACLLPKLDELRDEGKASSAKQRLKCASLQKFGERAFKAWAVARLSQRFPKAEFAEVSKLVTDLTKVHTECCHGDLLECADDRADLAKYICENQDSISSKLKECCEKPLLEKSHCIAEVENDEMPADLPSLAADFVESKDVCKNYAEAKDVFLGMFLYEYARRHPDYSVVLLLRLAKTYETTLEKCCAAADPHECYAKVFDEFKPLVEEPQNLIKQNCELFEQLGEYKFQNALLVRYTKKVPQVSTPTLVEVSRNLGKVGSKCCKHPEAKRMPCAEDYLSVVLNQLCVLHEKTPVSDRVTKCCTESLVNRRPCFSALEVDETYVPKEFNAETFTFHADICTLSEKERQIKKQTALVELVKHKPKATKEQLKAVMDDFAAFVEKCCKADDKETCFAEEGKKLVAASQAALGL

[5] = molecular target: unrelated Fc-fused recombinant protein (negative control); assay: ELISA, bacterial lysate on plate-bound antigen, luminescence
[6] = molecular target: T3, human serum albumin (human, UniProt P02768 25-609); assay: as above
T3 construct: Negative control antigen of the screening ELISA; also called HSA
Outline: (§2)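 Biotinylated CD137-Fc, an unrelated Fc-fusion protein or human serum albumin captured 1 h on streptavidin plates blocked in Starting Block T20; diluted bacterial lysate applied 1 h. Bound binders detected with HRP-conjugated anti-Centyrin antibody (PAB25) for 1 h, then POD substrate read-out.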
T3 sequence (P02768 25-609 limits assumed): as above

[7] = molecular target: T4, recombinant biotinylated human CD137 protein (Fc-fusion protein, R&D Systems 838-4B) (human, UniProt Q07011 24-186, biotinylated (site not stated)); assay: as above
T4 construct: Bought Fc fusion; The ELISA used the same antigen as the panning; also called CD137-Fc; biotinylated CD137; not shown: Fc part of the bought fusion protein
Outline: as §2

Row | Binder | ELISA CD137 (RLU) [1] | EC50 [2] | ELISA Fc Control (RLU) [3] | ELISA HSA (RLU) [4] | ELISA Fc Control (RLU) [5] | ELISA HSA (RLU) [6] | ELISA CD137-Fc (RLU) [7]
1 | B1 | 8.12e+06 RLU | 0.00121 µM | 1520 RLU | 480 RLU | – | – | –
2 | B2 | 5.89e+06 RLU | 0.0105 µM | 2240 RLU | 960 RLU | – | – | –
3 | B3 | 4.71e+06 RLU | 0.218 µM | 1600 RLU | 560 RLU | – | – | –
4 | B4 | 5.74e+06 RLU | 0.0139 µM | 960 RLU | 480 RLU | – | – | –
5 | B5 | 9.73e+06 RLU | 0.134 µM | 2640 RLU | 1200 RLU | – | – | –
6 | B6 | – | 0.0187 µM | 1440 RLU | – | – | – | –
7 | B7 | 1.43e+07 RLU | 0.017 µM | 1440 RLU | 400 RLU | – | – | –
8 | B8 | 1.67e+07 RLU | 0.0124 µM | 1040 RLU | 400 RLU | – | – | –
9 | B9 | 1.64e+07 RLU | 0.0177 µM | 880 RLU | 480 RLU | – | – | –
10 | B10 | 1.51e+07 RLU | 0.025 µM | 1200 RLU | 480 RLU | – | – | –
11 | B11 | 2.08e+06 RLU | 0.184 µM | 1360 RLU | 640 RLU | – | – | –
12 | B12 | 1.4e+07 RLU | 0.0269 µM | 1840 RLU | 640 RLU | – | – | –
13 | B13 | 2.42e+06 RLU | 0.0727 µM | 2000 RLU | 800 RLU | – | – | –
14 | B14 | 1.82e+07 RLU | 0.00327 µM | 1360 RLU | 560 RLU | – | – | –
15 | B15 | 1.28e+07 RLU | 0.0106 µM | 1200 RLU | 640 RLU | – | – | –
16 | B16 | 1.27e+07 RLU | 0.00734 µM | 1200 RLU | 400 RLU | – | – | –
17 | B17 | 1.26e+07 RLU | 0.279 µM | 1680 RLU | 480 RLU | – | – | –
18 | B18 | – | – | – | – | 480 RLU | 640 RLU | 906000 RLU
19 | B19 | – | – | – | – | 560 RLU | 400 RLU | 358000 RLU
20 | B20 | – | – | – | – | 320 RLU | 560 RLU | 1.27e+06 RLU
21 | B21 | – | – | – | – | 560 RLU | 560 RLU | 1.22e+06 RLU
22 | B22 | – | – | – | – | 36200 RLU | 26600 RLU | 573000 RLU
23 | B23 | – | – | – | – | 480 RLU | 560 RLU | 485000 RLU
24 | B24 | – | – | – | – | 320 RLU | 320 RLU | 1.02e+06 RLU
25 | B25 | – | – | – | – | 320 RLU | 320 RLU | 1.34e+06 RLU
